According to publication PMC8175443, “In vitro assessment and phase I randomized clinical trial of anfibatide a snake venom derived anti-thrombotic agent targeting human platelet GPIbα” (Scientific Reports, 2021):
Residue numbers refer to the chain shown, from its start.

B1: GPIbαN-Long WT (domain or fragment)
chain: HPHPICEVSKVASHLEVNCDKRNLTALPPDLPKDTTILHLSENLLYTFSLATLMPYTRLTQLNLDRCELTKLQVDGTLPVLGTLDLSHNQLQSLPLLGQTLPALTVLDVSFNRLTSLPLGALRGLGELQELYLKGNELKTLPPGLLTPTPKLEKLSLANNNLTELPAGLLNGLENLDTLLLQENSLYTIPKGFFGSHLLPFAFLHGNPWLCNCEILYFRRWLQDNAENVYVWKQGVDVKAMTSNVASVQCDNSDKFPVYKYPGKGCPTLGDEGDTDLYDYYPEEDTEGDK
modifications: sulfotyrosine at 276, 278, 279 (post translational sulfation that normally occurs at these positions)
B2: GPIbαN-Long 3Y/F (domain or fragment)
chain: B1 chain with Y278F, Y280F, Y281F
modifications: no Tyr sulfation at mature 276, 278, 279 (Tyr to Phe). Mature residue 1 = precursor 17 with no residue 0, so -2 = precursor 15. Disulfide-linked dimer through terminal Cys of the C-terminal …
B3: anfibatide (natural protein)
chain 1: DVDCLPGWSAYDQSCYRVFKLLKTWDDAEKFCTERPKGGHLVSIESAGERDFVAQLVSENKQTDNVWLGLKIQSKGQQCSTEWTDGSSVSYENFSEYQSKKCFVLEKNTGFRTWLNLNCGSEYAFVCKSPP
chain 2: GFCCPLRWSSYEGHCYLVVKEKKTWDDAEKFCTEQRKGGHLVSVHSREEADFLVHLAYPILDLSLIWMGLSNMWNDCKREWSDGTKLDFKAWAKTSDCLIGKTDGDNQWLNMDCSKKHYFVCKFKL
notes: anfibatide (agkisacucetin) alpha-subunit, snaclec of Deinagkistrodon acutus venom; disulfide-linked to the beta-subunit; anfibatide (agkisacucetin) beta-subunit, snaclec of Deinagkistrodon acutus venom; disulfide-linked to the alpha-subunit; Disulfide-linked alpha-beta heterodimer; MALDI-TOF single peak at m/z 29,799.7; also called agkisacucetin

Columns and labels:
GPIbα (Homo sapiens) = GPIbα (Homo sapiens) (UniProt P07359); conditions: cited from earlier work
anfibatide = target: B3; test: SPR; GPIbαN-Long captured by immobilised anti-SV40 mAb LJ-3A2 on an HC200M chip; anfibatide injected at increasing concentrations, 75 μL/min for 3 min; Biacore 3000; 135 mM NaCl, 20 mM HEPES pH 7.4, 0.005% Tween 20; steady-state mass ratios fit to a one-site model; conditions: both partners purified
[1] = target: T1, GPIbα on human washed platelets (human (endogenous in platelets), UniProt P07359 17-652); test: flow cytometry on cells; competition on human washed platelets (2 x 10^7/mL, modified Tyrode's buffer pH 7.4, room temperature, 30 min); ligand: BP-αFIIa at 80 nM with streptavidin-PE; anfibatide 0-200 nM added 5 min before; Ki by Cheng-Prusoff; conditions: one partner purified
T1 construct: human platelet glycoprotein Ibα, endogenous on the platelet surface; also called platelet GPIbα; glycoprotein (GP) Ibα; source: endogenous, washed platelets of healthy human volunteers

[2] = target: T1, GPIbα on human washed platelets; test: flow cytometry on cells; competition on human washed platelets (2 x 10^7/mL, modified Tyrode's buffer pH 7.4, room temperature, 30 min); ligand: VWF A1 domain at 1.5 nM with FITC anti-VWF mAb; anfibatide 0-200 nM added 5 min before; Ki by Cheng-Prusoff; conditions: one partner purified
[3] = target: T1, GPIbα on human washed platelets; test: flow cytometry on cells; competition on human washed platelets (2 x 10^7/mL, modified Tyrode's buffer pH 7.4, room temperature, 30 min); ligand: FITC-conjugated mAb LJ-Ib10 at 10 nM; anfibatide 0-200 nM added 5 min before; Ki by Cheng-Prusoff; conditions: one partner purified

In the case of VWF (from UniProt P04275), the Kd (GPIbα (Homo sapiens)) is listed as 1.5 nM.

B1 showed a Kd (anfibatide) of 21 ± 0.9 nM.

In the case of B2, the Kd (anfibatide) is reported as 90.5 ± 9.2 nM.

B3 showed a Ki [1] of 1.4 ± 0.1 nM, a Ki [2] of 1.2 ± 0.5 nM and a Ki [3] of 3.4 ± 1.1 nM.
